Source: patent US20230226096A1 (Orna Therapeutics, Inc., priority 2020, published 2023)

B1: Poecivirus BCCH-449 (nucleic acid, listed as Poecivirus sp.)
DNA: ACTACACAATCGCAACACGCGCAAGTTTGTAGTTTGATTGGCGTGCAAATGTCAAATCAAGCATATAACACAATTTGGTGGCTGTTGGTGTTTGTTATAGGAATTTTGGTTGTGTTGAAATTGTGGATGTGTAGGAAATATGCACAATTACGTCAGCGTCAGGAGTTTTATAACCTGGCGCAACACCAAAATGGTCTTCGCGCTTTAACATCACCAGCGAGGTGTAAACAAATTGAAGTTGAATTAGATCGTGTATAGGCCAGGGAACCATCCCTCCCAACGCCACATCTTGTGGGGAAGTTGGGATAATGGTGGGTCTATATGAATTGGTCTGTAGACCCACAGTGAAGAGTGAATAGTATGCTTGCGGTTCCATTTGTTAATGGTCTAGCATGGGTGGGGGCGGCAACCCCGTGAGGGGTTCCCCACTGGCCAAAAGCCCAGGGGTTAGTCATTTCAACCAAGGAAGCTGGTAACCTGGTGACCTGAACTTGAGTGGTGAGACCCCCTTGCTAGAGTGTGTAAACCGATTGTAAGCATTTTGTTTGCTTAGTATCTGTGGTATAAGCAGTCAATTTTGTATAGGCTCAAGGCTGTGGTAGTTAGTAGATGCCCGGAAGGTTATTACTGATCCGGGGACCGTGACTATACATTAGGTAAACCGGTTTAAAAACC
B2: Carp picornavirus 1 (nucleic acid)
DNA: AGCTACAGGAAAGAGAGAGATAATCACAGCACATAAATACAACTACAGAAGAGAGCCTTTCCCTGAGCACTATTTACAGCAAACCACGCTGGGAAAAGTGGTAGCATGACCCACTTACGGGTTACTTAGTATAGGATTTTAATATCTTCGATTCTTTATTTTCTTTTCTTAACTAAGTTCGCCCGGACTTTATCCGTGTTTTATTTTAGTTTAAGCAAAATTGAGTAACTAAGTTTTTAACCTGCCAAATGGTGAGAAGTAACTCTGTGAAAATACCATTTGTGCATGAAATTGTCTTGAAAACTCTTAGGCTTTTGGGGGGTCCCACTGCTGTTTGGAGGACTATTGACAGACTCTATTGTAGTTGAGTAGTGACTAATGATAACGATTTGCGTATTACGCAATGGGCTGTACCCGTTAGATTTAGTATGCCGGGGGGAGGGGTCCCACTGGATTGCACTATGTAACCTGACAGGGCGTCTGCCGACGCACTACAATGAGGATAAGATCGGCTGTTTTTATTT
B3: Falcon picornavirus (nucleic acid)
DNA: CGCTTGGAATAAGTTGAGAGGAATTATGCATGCTAGTTGTGTTTGTTTACAACTAATTGTTCTAATCCAAGTGAAGCTCTTCGCTTGGGGCGGCACGACACTTGCCGTAATTCTTCTACCGTCCCTCCACACCTTGTGGATGAAGGGCCGGATGTGTGGCCTCTGGCTAACCCCTCTCTCTGGGGTGATGCTACTGGATGTTTTACTCCTAGACCAAATCACATGAACTCCTCTTGATCCACTTCGGTGGGGCTATGAGCCTGCGGATTAATAGCTGGCGACAGCTACCCCAGGGGCCAAAAGCCACGGTGTTAGCAGCACCCTCATAGTCTGATGCCCAAGGGCTGATGTTGGGAGCTAGTAGTGTGTGTCTGGCCTATGTTTAGGACTTCTGGCCAAGCGCAGAGGAGTGGGGCTGAAGGATGCCCAGAAGGTACCCGTAGGTAACCTTAAGAGACTATGGATCTGATCTGGGGCCCCCTCACGTGGCTTTACCACGTGTTGGGGGTTAAAAAACGTCTAGGCCCCACCAGCCCACGGGAGTGGGCTTTCCCTTAAAAAGCCCAACAATATTTATGGTGACAATTCACTGTTTCTTCTTTGCAATTTTTGTATTCTTGGACTCCTTATTTTTTGTTTGCTTGATTTTAGTGGACATTCAGATTCAAATACAAA

Tested on: HEK293 cells
Format: cell-based, human
Conditions: luminescence from secreted Gluc in supernatant 24 hours after transfection of HEK293 cells; circular RNA encoding Gluc with the named IRES (UTR truncated to 675 nt)

In order of falling Expression:
1. B3  3.08E+06
2. B1  3.43E+05
3. B2  1.13E+05
